B1: VG9B411 (antibody, human IgG1, kappa, V domains shown)
VH: EVQLVESGGGLVKPGGSLRLSCSASGFTFSNYDMNWVRQAPGKGLEWVSSISSSSSYIYYADSVKGRFTISRDNAKNSLYLQMNSLRAEDTAVYHCARDVGVTTDYYYYGMDVWGQGTTVTVSS
VL: EIVMTQSPSSVSASVGDRVTITCRASQGINSWLAWYQQDPYKAPKLLIYAASTLQSGVPSRFGGRGSGTEFTLTISSLQPEDFAVYYCQQYNNWPRTFGQGTKVDIKR
notes: also called antibody #58
B2: VG9B128 (antibody, human IgG1, kappa, V domains shown)
VH: EVQLVESGGGVVQPGKSLRLSCTASGFTFGTYGMHWVRQAPGKGLDWVAVIWYNGSNKYYADSVKGRFTISRDNSKNTLYLQMNSLRTEDTAVYYCARGGFGESFDSWGQGTLVTVSS
VL: DIVMTQTPATLSLSPGERATLSCRASQSVIDYLAWFQQKPGQAPRLLIYDASNRATGIPARFSGSGSGTDFTLTISSLEPEDFAVYYCQQRSNWPLTFGGGTKVEIKR
B3: VG9B60 (antibody, human IgG1, kappa, V domains shown)
VH: QVQLVQSGAEVKKPGASVKVSCKASGYTFTGYYMHWVRQAPGQGLEWMGRINPNSGVTHYAQKFQGRVTMTRDTSISTAYMELSRLRSDDTAVYYCARGGSLVRGVISGLDYWGQGTTVTVSS
VL: DIVMTQSPGTLSLSPGERATLSCRASQSFSGSYLAWYQQKPGQAPSLLIYGASSRATGIPDRFSGSGSGTDFTLTISRLEPEDFALYYCQQYGSSPPYTFGQGTKVEIKR
B4: VG9B135 (antibody, human IgG1, kappa, V domains shown)
VH: QVTLKESGPTLVTPSQTLTLTCTFSGFSLTTYGVGVGWIRQPPGKALEWLALIYWNDDKRYYPSLNNRLTITKDTSKHLVVLTLTNMDPVDTATYYCAHDYDFWSGYFDYWGQGTLVTVSS
VL: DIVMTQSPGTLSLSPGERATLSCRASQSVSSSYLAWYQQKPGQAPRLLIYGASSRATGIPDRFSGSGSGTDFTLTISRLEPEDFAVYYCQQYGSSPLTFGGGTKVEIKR
B5: VG9B57 (antibody, human IgG1, kappa, V domains shown)
VH: EVQLVESGGGLVKPGGSLRLSCAASGFTFSSHDMNWVRQAPGKGLGWVSSISSSSSYIFYADSVKGRFTISRDNAKNSLYLQMSSLRAEDTAVYYCARDLGVGVRDYYYYGMDVWGQGTMVTVSS
VL: DIQMTQSPSAMSASVGDRVTITCRASQDITNYLAWFQQKPGKVPKRLIYAASSLQGGVPSRFSGSGSGTEFTLTISSLQPEDFSTYYCLQHDTYPYTFGQGTKLEIKR
B6: VG9B409 (antibody, human IgG1, kappa, V domains shown)
VH: EVQLVESGAEVKKPGASVKVSCKASGYTLTSYYMHWVRQAPGQGLEWMGIINPSGGSTSYAQKFQGRVTMTRDTSTSTVYMELSSLRSEDTAVYYCARGSYGWYFDLWGRGTLVTVSS
VL: EIVLTQSPGTLSLSPGERATLSCRASQSVTSSYLAWYQQKPGQTPRLLIYGASSRATGIPDRISGSGSGTDFTLTVSRLEPEDFAVYYCQQYGSSPPYTFGQGTKLEIKR
B7: VG9B32 (antibody, human IgG1, kappa, V domains shown)
VH: EVQLVQSGGDLLQPGGSLRLSCAASGFTFSRYAMNWVRQAPGKGLEWVSFISGTGYTVYYADSVKGRFTISRDNAKNSLYLQMNSLRDEDTAVYYCARDQEPGFDYWGQGTLVTVSS
VL: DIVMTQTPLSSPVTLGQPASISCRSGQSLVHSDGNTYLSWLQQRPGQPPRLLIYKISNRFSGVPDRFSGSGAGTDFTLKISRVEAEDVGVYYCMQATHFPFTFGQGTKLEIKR
B8: VG9B66 (antibody, human IgG1, kappa, V domains shown)
VH: EVQLVESGGGLVKPGGSLRLSCAASGFTFSTYTMNWVRQAPGKGLEWVSSISSSSFYMDYADSVKGRFTISRDNAKNSLSLLMNSLRAEDTAVYYCARDGDIVATIRGSFDYWGQGTMVTVSS
VL: EIVLTQSPSSLSTSVGDRVTITCRASQDITNFLAWYQQKPGKLPKLLIYTASTLQSGVPSRFSGSASGPDFTLTISSLQPEDVATYYCQKYNSAPFTFGPGTKVEIKR
B9: VG9B21 (antibody, human IgG1, kappa, V domains shown)
VH: EVQLLESGGGLVKPGGSLRLSCAASGFSFSNYDMNWVRQAPRKGLEWVSSISSSSHYIYYADSLKGRFTISRDNAKNSLFLQMNSLRAEDTAVYYCARDRGVTTDYYYYALDVWGQGTMVTVSS
VL: DIVMTQSPSSLSASVGDRVTITCRASQGIYNYLAWYQQKPGNVPKLLIYAASTLQSGVPSRFSGSGSGTDFSLTISSLQPEDFTTYYCQKYNRAPFTFGPGTKVDIKR

For one test, the target named is T1, γδ T cell receptor on human γδ T cells (human).
T1 construct: also called AG000003021 (γδ T cells)
The test can be described thus: flow cytometry, dose-response (DRC) binding at 37°C on human γδ T cells. As to the method: (§1) Binding of antibodies to human γδ T cells or SKW cell lines expressing Vγ9/Vδ2, Vγ9/Vδ2 or Vγ5/Vδ2 was carried out by flow cytometry. Briefly, the cells were centrifuged at 300×g for 5 minutes and the pellet was resuspended in 34 ml fresh media (in RPMI+10% FBS). 50 μL of the cells were then plated (44K cells/well) into assay plates. Samples were incubated for one hour at 37° C. in tissue culture (TC) incubator followed by wash steps by adding 100 μl FACS staining buffer. Secondary detention antibodies (A647 conjugated anti-human IgG Fc specific antibody (2 μg/mL) along with AF488 anti mouse CD3, clone OKT3 at 1 ug/mL) were added at 50 μL/well to appropriate wells according to the plate map. After incubating for 60 minutes at 37° C. in the TC incubator, cells were again washed as described above. This is followed by resuspension in 20 μL/well running buffer containing 1:1000 dilution of Sytox blue dead cell stain and the plates were run on iQue Screener.
(§2) Gating and data analysis: Human anti-human Vγ9 antibody (VG9B2 mAb at 10 nM) was used to mark the gating of positive population. All cells were first gated for singlets on SCS-A vs. SCS-H dot plot, live/dead followed by CD3 positive population, and this subset of CD3 positive population was gated for Vγ9 positive binding using positive control mAb. Cells were also assessed for cell binding of control mAbs by RL1 (A647) Geomeans from the live cell population. Advanced metrics were used and normalization metrics were chosen to calculate fold over background wells containing secondary antibody alone (designated as ‘background’ within ForeCyt settings).
Turning to B1, the “Max. Activity” value came out at 396 fold over background.

The next test has as its target T2, γδ T cell receptor on human γδ T cells (human).
T2 construct: Mixed population of primary cells; also called AG000003021 (γδ T cells)
Kind of test: flow cytometry, dose-response binding at 37° C. on human γδ T cells. As to the method: as §1, §2
(In general: In flow cytometry, cells or beads pass a laser one at a time.)
With B2, the “Max. Activity” value stood at 1480 fold over background. On to B3, for which the “Max. Activity” value is 567 fold over background. As for B4, the “Max. Activity” value is 577 fold over background. B5: the “Max. Activity” value is 1210 fold over background. In the case of B6, the “Max. Activity” value is 411 fold over background. Consider B7, for which the “Max. Activity” value was found to be 1210 fold over background. For the molecule B8, the “Max. Activity” value came out at 1220 fold over background. For B9, the “Max. Activity” value turned out to be 1670 fold over background.
